First the molecules themselves.
B1: EF‐CF (peptide)
peptide: KFKFQFN
notes: designed variant of enhancing factor-C (EF-C), pattern KXKXQXN with X = F; self-assembling peptide; made on Fmoc-Asn(Trt) Wang resin; also called KFKFQFN; source: synthetic peptide (Fmoc-SPPS, preparative RP-HPLC, purity ≥ 90 %)
B2: EF‐CW (peptide)
peptide: KWKWQWN
notes: designed variant of enhancing factor-C (EF-C), pattern KXKXQXN with X = W; self-assembling peptide; made on Fmoc-Asn(Trt) Wang resin; also called KWKWQWN; source: synthetic peptide (Fmoc-SPPS, preparative RP-HPLC, purity ≥ 90 %)
B3: EF‐CL (peptide)
peptide: KLKLQLN
notes: designed variant of enhancing factor-C (EF-C), pattern KXKXQXN with X = L; self-assembling peptide; made on Fmoc-Asn(Trt) Wang resin; also called KLKLQLN; source: synthetic peptide (Fmoc-SPPS, preparative RP-HPLC, purity ≥ 90 %)
B4: EF‐CI (peptide)
peptide: KIKIQIN
notes: designed variant of enhancing factor-C (EF-C), pattern KXKXQXN with X = I; self-assembling peptide; made on Fmoc-Asn(Trt) Wang resin; also called KIKIQIN; source: synthetic peptide (Fmoc-SPPS, preparative RP-HPLC, purity ≥ 90 %)
B5: EF‐CV (peptide)
peptide: KVKVQVN
notes: designed variant of enhancing factor-C (EF-C), pattern KXKXQXN with X = V; self-assembling peptide; made on Fmoc-Asn(Trt) Wang resin; also called KVKVQVN; source: synthetic peptide (Fmoc-SPPS, preparative RP-HPLC, purity ≥ 90 %)

One series deals with the molecule itself. The experiment in a line: conversion rate assay (3 kDa centrifugal filtration, fluorescamine fluorescence); self-assembly; 1 mM peptide incubated 24 h, monomers separated from fibers at 12 000 g for 60 min at 4 °C; filtrated against nonfiltrated fluorescence.
As for B1, the conversion rate is 94%.
B2 showed a conversion rate of 94%.
For B3, the conversion rate stood at 73%.
B4: the conversion rate is 93%.
The same measure, in the same setting: for B5 the value was 62%.

Another series deals with the molecule itself. In words: dynamic light scattering; self-assembly; peptide diluted from 10 mM DMSO stock into DPBS (6 μM to 1 mM), 24 h incubation, room temperature; derived count rate below 5 kcps defined as no aggregation.
On to B1, for which the aggregation concentration is ≤ 100 µM.
Still for that read-out and setting: next, B2: ≤ 100 µM.
The same measure, in the same setting: for B3 the value was ≤ 100 µM; for B4, ≤ 100 µM.
For B5, the aggregation concentration was ≤ 100 µM.

(Values after PMC12499481, “Design of the Hydrophobic Core of Self‐Assembling Peptide Fibrils for Enhanced Neural Regeneration” (Small Science, 2025).)
